This data set concerns the target T1, MAD7 E962Q (dead MAD7) (Eubacterium rectale, E962Q).
T1 chain: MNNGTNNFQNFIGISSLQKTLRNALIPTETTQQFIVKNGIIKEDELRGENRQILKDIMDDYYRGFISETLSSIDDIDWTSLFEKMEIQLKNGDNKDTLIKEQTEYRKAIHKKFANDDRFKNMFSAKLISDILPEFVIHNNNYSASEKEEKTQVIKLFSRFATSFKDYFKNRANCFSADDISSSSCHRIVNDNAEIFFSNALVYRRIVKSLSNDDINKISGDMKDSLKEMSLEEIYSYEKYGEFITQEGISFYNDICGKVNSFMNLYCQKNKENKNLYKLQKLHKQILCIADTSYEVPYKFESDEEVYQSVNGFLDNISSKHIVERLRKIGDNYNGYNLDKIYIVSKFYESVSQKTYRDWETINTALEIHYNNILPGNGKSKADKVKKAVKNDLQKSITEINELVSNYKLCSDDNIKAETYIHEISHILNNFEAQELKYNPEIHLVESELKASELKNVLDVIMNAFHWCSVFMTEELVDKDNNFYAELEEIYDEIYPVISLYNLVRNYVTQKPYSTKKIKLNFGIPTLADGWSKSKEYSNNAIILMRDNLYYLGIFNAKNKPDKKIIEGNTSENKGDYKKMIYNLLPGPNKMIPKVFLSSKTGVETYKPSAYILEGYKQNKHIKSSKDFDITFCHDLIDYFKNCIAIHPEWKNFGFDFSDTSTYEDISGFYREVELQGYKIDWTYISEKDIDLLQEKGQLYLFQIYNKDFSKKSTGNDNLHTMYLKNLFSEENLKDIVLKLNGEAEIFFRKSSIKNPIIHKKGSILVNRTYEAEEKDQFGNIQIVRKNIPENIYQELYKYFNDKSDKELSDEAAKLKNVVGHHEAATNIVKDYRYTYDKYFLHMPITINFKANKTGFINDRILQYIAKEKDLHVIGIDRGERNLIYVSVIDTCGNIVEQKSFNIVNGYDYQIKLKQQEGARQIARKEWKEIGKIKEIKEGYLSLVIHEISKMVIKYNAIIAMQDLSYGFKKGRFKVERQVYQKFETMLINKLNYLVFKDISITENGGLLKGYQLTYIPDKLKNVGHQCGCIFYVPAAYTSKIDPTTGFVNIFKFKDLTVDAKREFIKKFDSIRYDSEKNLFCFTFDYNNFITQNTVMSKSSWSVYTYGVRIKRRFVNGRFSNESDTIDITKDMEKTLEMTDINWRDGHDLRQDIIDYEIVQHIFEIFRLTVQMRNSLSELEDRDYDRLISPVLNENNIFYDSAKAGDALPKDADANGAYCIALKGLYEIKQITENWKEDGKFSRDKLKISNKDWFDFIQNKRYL
The data set can be described thus: EMSA; bound without cutting; PAM TTTA (5', from target sequence); NEB3.1, salmon sperm DNA competitor, 37 C. As to conditions: tags: C-terminal 6xHis. The protocol:
To evaluate catalytic activity the modified MAD7 enzyme, an electrophoretic mobility shift assay (EMSA) was performed. The following reagents were used: [0142] […] salmon sperm DNA (United States Biological D3950-02 DNA, Salmon [0143] (Deoxyribonucleic acid) CAS: 9007-49-2 [0144] 100 pmol MAD7 variant [0145] 5 pmol double stranded, 6FAM labeled target (created as described above) [0146] 50 pmol MAD7 PPIB gRNA [0147] 2 μL NEB3.1 10X (New England Biolabs) [0148] 20 μL total reaction
The MAD7 variant was incubated with MAD7 PPIB gRNA at 37° C. for 15 minutes. Other reagents were added and incubated 37° for 30 minutes. Reactions were analyzed by gel electrophoresis. Samples were run on a 5% Mini-PROTEAN TBE Mini-Gels (Bio-Rad). Gels were pre-run for 15 minutes at 100V in 0.5X TBE running buffer, samples were loaded and run at 200V for 15 minutes. Gels were imaged with ProteinSimple FluorChem M system using blue excitation and green emission filter to detect 6FAM label. Gel was then stained for 15 minutes in ethidium bromide solution and imaged again using blue excitation and orange emission filter to detect DNA, finally the gel was stained with Coomassie stain and imaged with white light. […]
On the technique in general: A gel shift assay detects complexes by their altered migration in electrophoresis.

B1: MAD7 PPIB gRNA ; 6FAM PPIB target duplex (ssRNA ; dsDNA)
RNA: UAAUUUCUACUCUUGUAGAUCCGUCACCAAAAUCAGAUUCA
DNA 1: AGATTCTCATAGGATTTTTACCGTCACCAAAATCAGATTCAGAACCACTTCTCTAAA
DNA 2: TTTAGAGAAGTGGTTCTGAATCTGATTTTGGTGACGGTAAAAATCCTATGAGAATCT
As to B1, the binding result is given as “binds”.

Source of the values: patent US20230265404, “ENGINEERED MAD7 DIRECTED ENDONUCLEASE” (BIO-TECHNE CORPORATION, published 2023).
